Measurements taken from article PMC5389731 (Nucleic Acids Research, 2017).

What was measured:
[1] = biological target: T1, CcdA2 (antitoxin dimer);CcdB2 (toxin dimer) (Escherichia coli (F …, UniProt P62552;P62554 1-72;1-101, |)); assay: ITC
[2] = biological target: T2, toxin CcdB2 (F plasmid CcdB dimer) (E. coli F plasmid, UniProt P62554 1-101); assay: ITC
[3] = biological target: T1, CcdA2 (antitoxin dimer);CcdB2 (toxin …); assay: EMSA
[4] = biological target: T1, CcdA2 (antitoxin dimer);CcdB2 (toxin …); assay: EMSA; remark: listed apart in the source
[5] = biological target: T2, toxin CcdB2 (F plasmid CcdB dimer); assay: ITC; remark: listed apart in the source

B1: CcdITC (3 binding sites) (dsDNA)
DNA 1: GCGGTATAAGAATATATACTGATATGTATACCC
DNA 2: GGGTATACATATCAGTATATATTCTTATACCGC
**Q.** Does B1 bind [1]?
**A.** Result: binds

B2: antitoxin CcdA2 (F plasmid CcdA dimer, full length) (natural protein, E. coli F plasmid, UniProt P62552 1-72, looked up)
chain: MKQRITVTVDSDSYQLLKAYDVNISGLVSTTMQNEARRLRAERWKAENQEGMAEVARFIEMNGSFADENRDW
**Q.** Which “difference between the high and low affinity binding constants” value [2] does the source give for B2 here?
**A.** The value was ~1e+06 fold.

B3: Random (dsDNA)
DNA 1: TGCCCAAGTGATGCTAAACAAGACTTAGCTGGTTCCTGTGTT
DNA 2: AACACAGGAACCAGCTAAGTCTTGTTTAGCATCACTTGGGCA
**Q.** Does B3 bind [3]?
**A.** Result: no binding

B4: Ccd3 (3 binding sites) (dsDNA)
DNA 1: ACGTGCGGTATAAGAATATATACTGATATGTATACCCGAATA
DNA 2: TATTCGGGTATACATATCAGTATATATTCTTATACCGCACGT
**Q.** Does B4 bind [4]?
**A.** Result: binds

**Q.** Does RRLRAERWKAENQEGMAEVARFIEMNGSFADENRDW (peptide, UniProt P62552 37-72, looked up) [CcdAC, truncated CcdA comprising the entire C-terminal domain (CcdA^37-72)] bind [5]?
**A.** Result: binds
